From patent US11542479B2, “Alcohol dehydrogenase mutant and use thereof” (priority 2019, dated 2023)

How the values were obtained:
Assay type in all cases: biochemical
[1] = target: alcohol dehydrogenase (KpADH, SEQ ID NO: 1) mutant S5, Q136N/F161V/S196G/E214G/S237C (Vanderwaltozyma polyspora, UniProt A7TM80, E214G/F161V/Q136N/S196G/S237C); assay: Kinetic parameters in asymmetric reduction of (4-chlorophenyl)-(pyridin-2-yl)-methanone, mutant S5; conditions: mutant S5 vs wild type, to (S)-alcohol
Description: (§1) The detection method of enzyme activity of the alcohol dehydrogenase is as follows:
(§2) A sodium phosphate buffer (PBS, 100 mM, pH 7.0) containing 1 mM NADPH and 1.0 mM substrate prochiral (4-chlorophenyl)-(pyridin-2-yl)-methanone is stood at 30° C. for 2 min, and then 10 μL of a pure enzyme solution is added to the sodium phosphate buffer, and reacted at 30° C. During the reaction, the change in absorbance of the reaction solution at 340 nm is measured on a microplate reader, and used to calculate the enzyme activity.
(§3) The initial reduction activity of wild-type alcohol dehydrogenase and alcohol dehydrogenase mutants M63, M64 and S5 obtained in Example 1 were respectively determined with 0.1-5 mM prochiral diaryl ketone (4-chlorophenyl)-(pyridin-2-yl)-methanone as a substrate. The data was fitted by the nonlinear regression method in Graph Pad Prism 7.0 software, to obtain the Km and Vmax in Michaelis-Menten equation. Then kcat and kcat/Km were calculated.
(§4) kcat is calculated by the formula kcat=Vmax·M/60, where M is the molecular weight of the enzyme, in kDa.

[2] = target: alcohol dehydrogenase (KpADH, SEQ ID NO: 1) mutant M63, K36I/T132D/N159D/K210E/T248A/Q272L (Vanderwaltozyma polyspora, UniProt A7TM80, K210E/K36I/N159D/Q272L/T132D/T248A); assay: Kinetic parameters in asymmetric reduction of (4-chlorophenyl)-(pyridin-2-yl)-methanone, mutant M63; conditions: mutant M63 vs wild-type alcohol dehydrogenase
Description: as §1, §2, §3, §4

[3] = target: alcohol dehydrogenase (KpADH, SEQ ID NO: 1) mutant M64, K36I/T132D/N159D/K210E/T248A/Q272L/Q136N/F161V/S196G/E214G/S237C (Vanderwaltozyma polyspora, UniProt A7TM80, E214G/F161V/K210E/K36I/N159D/Q136N/Q272L/S196G/S237C/T132D/T248A); assay: Kinetic parameters in asymmetric reduction of (4-chlorophenyl)-(pyridin-2-yl)-methanone, mutant M64
Description: as §1, §2, §3, §4

[4] = tested on: O=C(c1ccc(Cl)cc1)c1ccccn1; assay: Kinetic parameters in asymmetric reduction of (4-chlorophenyl)-(pyridin-2-yl)-methanone, mutant M63; conditions: other: mutant M63; 0.1-5 mM substrate; pH 7.0; 30.0 °C
Description: as §1, §2, §3, §4

[5] = tested on: O=C(c1ccc(Cl)cc1)c1ccccn1; assay: Kinetic parameters in asymmetric reduction of (4-chlorophenyl)-(pyridin-2-yl)-methanone, mutant M64; conditions: other: mutant M64; 0.1-5 mM substrate; pH 7.0; 30.0 °C
Description: as §1, §2, §3, §4

[6] = tested on: O=C(c1ccc(Cl)cc1)c1ccccn1; assay: Kinetic parameters in asymmetric reduction of (4-chlorophenyl)-(pyridin-2-yl)-methanone, mutant S5; conditions: other: mutant S5; 0.1-5 mM substrate; pH 7.0; 30.0 °C
Description: as §1, §2, §3, §4

[7] = tested on: O=C(c1ccc(Cl)cc1)c1ccccn1; assay: Kinetic parameters in asymmetric reduction of (4-chlorophenyl)-(pyridin-2-yl)-methanone, wild type; conditions: other: wild type; 0.1-5 mM substrate; pH 7.0; 30.0 °C
Description: as §1, §2, §3, §4

Compound: O=C(c1ccc(Cl)cc1)c1ccccn1 [(4-chlorophenyl)-(pyridin-2-yl)-methanone]
- catalytic efficiency compared with wild type [1]: decreased compared with the wild type
- catalytic efficiency relative to wild type [2]: 1.3 times
- catalytic efficiency relative to mutant S5 ([3]; mutant M64 vs mutant S5): 1.35 times
- catalytic efficiency compared with wild type ([3]; mutant M64 vs wild type, to (S)-alcohol): close to that of the wild type

Compound: alcohol dehydrogenase (KpADH, SEQ ID NO: 1) mutant M63, K36I/T132D/N159D/K210E/T248A/Q272L (Vanderwaltozyma polyspora DSM 70294; K210E/K36I/N159D/Q272L/T132D/T248A)
- Km [4]: 830 ± 200 µM
- Vmax [4]: 32.8 µmol/min/mg
- kcat [4]: 22.8 ± 2.14 s⁻¹
- kcat/Km [4]: 27500 M⁻¹ s⁻¹

Compound: alcohol dehydrogenase (KpADH, SEQ ID NO: 1) mutant M64, K36I/T132D/N159D/K210E/T248A/Q272L/Q136N/F161V/S196G/E214G/S237C (Vanderwaltozyma polyspora DSM 70294; E214G/F161V/K210E/K36I/N159D/Q136N/Q272L/S196G/S237C/T132D/T248A)
- Km [5]: 860 ± 140 µM
- Vmax [5]: 25.1 µmol/min/mg
- kcat [5]: 17.4 ± 1.1 s⁻¹
- kcat/Km [5]: 20300 M⁻¹ s⁻¹

Compound: alcohol dehydrogenase (KpADH, SEQ ID NO: 1) mutant S5, Q136N/F161V/S196G/E214G/S237C (Vanderwaltozyma polyspora DSM 70294; E214G/F161V/Q136N/S196G/S237C)
- Km [6]: 1090 ± 100 µM
- Vmax [6]: 24.4 µmol/min/mg
- kcat [6]: 16.1 ± 1.7 s⁻¹
- kcat/Km [6]: 14800 M⁻¹ s⁻¹

Compound: wild-type alcohol dehydrogenase (KpADH), SEQ ID NO: 1 (Vanderwaltozyma polyspora DSM 70294)
- Km [7]: 950 ± 100 µM
- Vmax [7]: 31.8 µmol/min/mg
- kcat [7]: 20.1 ± 1 s⁻¹
- kcat/Km [7]: 21200 M⁻¹ s⁻¹
